Experimental data from the Human Domainome abundance scans (Beltran et al. 2025).
± gives the uncertainty stated by the source.

B1: Nanos homolog 2, residues 63 to 115; numbered along this chain, P60321 (parent)
chain: CNFCKHNGESRHVYSSHQLKTPDGVVVCPILRHYVCPVCGATGDQAHTLKYCP
B2: Dynamin-binding protein, residues 146 to 206; numbered along this chain, Q6XZF7 (parent)
chain: SMGQARALMGLSAQLDEELDFREGDVITIIGVPEPGWFEGELEGRRGIFPEGFVELLGPLR

Variants of: B1
Test: abundance fitness (aPCA) (normalised: wild type 0, dead -1); higher = more abundant; growth selection in yeast, the domain comes from the species named
Settings: Homo sapiens

Point of comparison: K50W, abundance fitness -0.226 ± 0.12. Against it:
- K50V — within error, -0.22 ± 0.075
- K50Y — within error, -0.318 ± 0.3
- Y51C — within error, -0.21 ± 0.11
- Y51D — within error, -0.381 ± 0.15
- Y51E — within error, -0.368 ± 0.15
- Y51F — higher, 0.097 ± 0.12
- Y51G — within error, -0.193 ± 0.073
- Y51I — within error, -0.34 ± 0.17
- Y51K — higher, 0.024 ± 0.12
- Y51L — within error, -0.137 ± 0.077
- Y51M — within error, -0.203 ± 0.12
- Y51N — higher, 0.075 ± 0.13
- Y51P — within error, -0.287 ± 0.074
- Y51Q — within error, -0.163 ± 0.11
- Y51R — within error, -0.258 ± 0.05
- Y51S — within error, -0.104 ± 0.085
- Y51T — within error, -0.097 ± 0.12
- Y51V — within error, -0.071 ± 0.067
- Y51W — within error, -0.237 ± 0.098
- C52A — lower, -0.777 ± 0.2
- C52D — within error, -0.505 ± 0.18
- C52E — within error, -0.64 ± 0.34
- C52F — lower, -0.789 ± 0.22
- C52G — lower, -0.732 ± 0.09
- C52H — within error, -0.181 ± 0.078
- C52I — within error, -0.731 ± 0.49
- C52K — lower, -0.488 ± 0.1
- C52M — lower, -0.788 ± 0.26
- C52P — within error, -0.249 ± 0.39
- C52Q — lower, -0.574 ± 0.19
- C52R — lower, -0.506 ± 0.085
- C52S — within error, -0.432 ± 0.12
- C52V — lower, -0.721 ± 0.082
- C52W — lower, -0.824 ± 0.12
- C52Y — lower, -0.497 ± 0.13
- P53G — within error, -0.359 ± 0.16
- P53S — within error, -0.439 ± 0.2

Variants of: B2
Test: as above
Settings: Homo sapiens

Point of comparison: S1P, abundance fitness -0.661 ± 0.36. Against it:
- V26Q — within error, -0.532 ± 0.14
- L19D — within error, -0.413 ± 0.17
- V26L — higher, 0.043 ± 0.049
- R61K — higher, 0.47 ± 0.3
- E41N — within error, -0.608 ± 0.071
- E34A — within error, -0.42 ± 0.28
- V54K — within error, -0.671 ± 0.25
- L42K — within error, -0.316 ± 0.14
- G31T — within error, -0.717 ± 0.32
- R46C — within error, -0.303 ± 0.059
- Q14V — higher, -0.175 ± 0.082
- L57K — within error, -0.585 ± 0.11
- L57H — within error, -0.629 ± 0.077
- I30L — higher, -0.085 ± 0.13
- R22Y — within error, -0.352 ± 0.19
- P50R — higher, -0.068 ± 0.061
- G24Q — within error, -0.733 ± 0.28
- T28C — within error, -0.941 ± 0.2
- G58E — higher, 0.082 ± 0.15
- R61H — higher, -0.153 ± 0.08
- E34R — higher, 0.025 ± 0.12
- I29N — within error, -0.461 ± 0.12
- E43L — within error, -0.527 ± 0.19
- R46Q — within error, -0.571 ± 0.3
- V26C — within error, -0.45 ± 0.047
- G31P — higher, -0.121 ± 0.15
- L15Q — higher, 0.137 ± 0.076
- E17C — higher, 0.07 ± 0.042
- E43M — higher, 0.06 ± 0.077
- L57P — within error, -0.655 ± 0.085
- P50V — within error, -1.02 ± 0.12
- G10L — within error, -0.436 ± 0.13
- V26F — within error, -0.464 ± 0.055
- V32G — within error, -0.599 ± 0.075
- G52W — higher, -0.053 ± 0.21
- L57R — within error, -0.43 ± 0.053
- G24V — within error, -0.701 ± 0.08
- E41F — within error, -0.6 ± 0.29
- R22C — higher, 0.081 ± 0.11
- P33D — within error, -1.11 ± 0.35
- G58T — higher, -0.079 ± 0.069
- L60A — within error, -0.387 ± 0.26
- A5C — within error, -0.302 ± 0.067
- W37S — within error, -0.62 ± 0.16
- V26K — within error, -0.311 ± 0.12
- L56I — within error, -0.42 ± 0.13
- G52M — higher, 0.046 ± 0.23
- V32Q — higher, 0.189 ± 0.1
- P35D — higher, -0.062 ± 0.098
- G36D — within error, -0.824 ± 0.23
- G24I — within error, -0.897 ± 0.13
- P33W — within error, -0.711 ± 0.19
- P33H — within error, -0.27 ± 0.11
- G40Q — within error, -0.974 ± 0.26
- L60G — higher, -0.176 ± 0.11
- I30R — within error, -0.284 ± 0.11
- S12E — within error, -0.426 ± 0.45
- E34M — within error, -0.398 ± 0.3
- Q4L — higher, -0.176 ± 0.047
- L57D — within error, -0.429 ± 0.063
- L57Y — within error, -0.578 ± 0.061
- E43W — within error, -0.747 ± 0.15
- L11Q — higher, 0.191 ± 0.072
- P35F — within error, -0.717 ± 0.18
- S1N — higher, -0.049 ± 0.11
- A13H — within error, -0.548 ± 0.072
- G40P — within error, -0.502 ± 0.095
- L57A — within error, -0.57 ± 0.068
- F49K — within error, -0.655 ± 0.21
- G24A — within error, -0.551 ± 0.079
- G47I — within error, -1.06 ± 0.35
- L15E — higher, 0.034 ± 0.3
- L19C — within error, -0.684 ± 0.12
- A7N — within error, -0.781 ± 0.11
- E34L — within error, -0.611 ± 0.2
- S1A — higher, 0.121 ± 0.084
- E41M — within error, -0.211 ± 0.093
- E51P — within error, -0.792 ± 0.33
- G36L — within error, -0.831 ± 0.1
- L15F — higher, 0.037 ± 0.052
- I27G — within error, -0.627 ± 0.12
- G40Y — within error, -0.604 ± 0.07
- E55N — within error, -0.939 ± 0.28
- S1H — higher, -0.104 ± 0.12
- M9T — higher, 0.017 ± 0.051
- P33G — within error, -0.469 ± 0.12
- G52L — within error, -0.29 ± 0.31
- A13E — within error, -0.57 ± 0.18
- P35G — within error, -0.743 ± 0.11
- E41V — higher, -0.148 ± 0.039
- L15T — higher, 0.273 ± 0.12
- G24W — within error, -0.891 ± 0.21
- L19A — within error, -0.525 ± 0.076
- I30A — within error, -0.374 ± 0.17
- A5S — within error, -0.545 ± 0.13
- I30C — within error, -0.599 ± 0.19
- V54I — within error, -0.947 ± 0.24
- R22L — within error, -0.282 ± 0.14
- G24N — within error, -0.253 ± 0.065
- P35M — within error, -0.473 ± 0.16
- R6N — within error, -0.763 ± 0.094
- E18G — higher, -0.17 ± 0.039
- S12L — within error, -0.641 ± 0.12
- G58Q — higher, -0.013 ± 0.1
- F38Q — within error, -1.12 ± 0.29
- E34I — higher, -0.055 ± 0.2
- R46Y — within error, -0.698 ± 0.36
- S1D — higher, -0.036 ± 0.15
- A7K — within error, -0.672 ± 0.21
- A7T — within error, -0.296 ± 0.21
- Q4M — higher, -0.065 ± 0.13
- I29F — within error, -0.924 ± 0.2
- G58H — within error, -0.23 ± 0.085
- E41I — higher, -0.073 ± 0.054
- P33C — within error, -0.792 ± 0.18
- A13Q — within error, -0.348 ± 0.12
- P35T — higher, -0.064 ± 0.088
- F21T — within error, -0.465 ± 0.11
- A13I — within error, -0.541 ± 0.077
- I48A — within error, -0.777 ± 0.29
- R61C — within error, -0.234 ± 0.11
- V26Y — within error, -0.416 ± 0.051
- E17T — higher, -0.101 ± 0.053
- P35V — higher, -0.202 ± 0.066
- S1L — within error, -0.554 ± 0.14
- G24E — within error, -0.593 ± 0.2
- E51Q — higher, -0.074 ± 0.18
- F53E — within error, -0.486 ± 0.2
